Where no end group is shown, it is not given here. [ ]: non-standard residue; d: D form. Aib = CC(C)(N)C(=O)O
B1: [Aib2,Glu21,Lys29,Aib30,Glu32,Phe33,Leu34,Glu35,Leu36,Leu37]-Exendin-4-(1-37)-peptide amide (peptide)
peptide: H[Aib]EGTFTSDLSKQMEEEAVREFIEWLKNK[Aib]PEFLELL-NH2
modifications: N-terminus assumed
SMILES: CC[C@H](C)[C@H](NC(=O)[C@H](Cc1ccccc1)NC(=O)[C@H](CCC(=O)O)NC(=O)[C@H](CCCNC(=N)N)NC(=O)[C@@H](NC(=O)[C@H](C)NC(=O)[C@H](CCC(=O)O)NC(=O)[C@H](CCC(=O)O)NC(=O)[C@H](CCC(=O)O)NC(=O)[C@H](CCSC)NC(=O)[C@H](CCC(N)=O)NC(=O)[C@H](CCCCN)NC(=O)[C@H](CO)NC(=O)[C@H](CC(C)C)NC(=O)[C@H](CC(=O)O)NC(=O)[C@H](CO)NC(=O)[C@@H](NC(=O)[C@H](Cc1ccccc1)NC(=O)[C@@H](NC(=O)CNC(=O)[C@H](CCC(=O)O)NC(=O)C(C)(C)NC(=O)[C@@H](N)Cc1c[nH]cn1)[C@@H](C)O)[C@@H](C)O)C(C)C)C(=O)N[C@@H](CCC(=O)O)C(=O)N[C@@H](Cc1c[nH]c2ccccc12)C(=O)N[C@@H](CC(C)C)C(=O)N[C@@H](CCCCN)C(=O)N[C@@H](CC(N)=O)C(=O)N[C@@H](CCCCN)C(=O)NC(C)(C)C(=O)N1CCC[C@H]1C(=O)N[C@@H](CCC(=O)O)C(=O)N[C@@H](Cc1ccccc1)C(=O)N[C@@H](CC(C)C)C(=O)N[C@@H](CCC(=O)O)C(=O)N[C@@H](CC(C)C)C(=O)N[C@@H](CC(C)C)C(N)=O
B2: [Aib8,Glu23,Val25,Glu34,Lys35,Aib36]-GLP-1-(7-37)-peptidyl-Glu-Phe-Leu amide (peptide)
peptide: H[Aib]EGTFTSDVSSYLEGEAVKEFIAWLVEK[Aib]GEFL-NH2
modifications: N-terminus assumed
SMILES: CC[C@H](C)[C@H](NC(=O)[C@H](Cc1ccccc1)NC(=O)[C@H](CCC(=O)O)NC(=O)[C@H](CCCCN)NC(=O)[C@@H](NC(=O)[C@H](C)NC(=O)[C@H](CCC(=O)O)NC(=O)CNC(=O)[C@H](CCC(=O)O)NC(=O)[C@H](CC(C)C)NC(=O)[C@H](Cc1ccc(O)cc1)NC(=O)[C@H](CO)NC(=O)[C@H](CO)NC(=O)[C@@H](NC(=O)[C@H](CC(=O)O)NC(=O)[C@H](CO)NC(=O)[C@@H](NC(=O)[C@H](Cc1ccccc1)NC(=O)[C@@H](NC(=O)CNC(=O)[C@H](CCC(=O)O)NC(=O)C(C)(C)NC(=O)[C@@H](N)Cc1c[nH]cn1)[C@@H](C)O)[C@@H](C)O)C(C)C)C(C)C)C(=O)N[C@@H](C)C(=O)N[C@@H](Cc1c[nH]c2ccccc12)C(=O)N[C@@H](CC(C)C)C(=O)N[C@H](C(=O)N[C@@H](CCC(=O)O)C(=O)N[C@@H](CCCCN)C(=O)NC(C)(C)C(=O)NCC(=O)N[C@@H](CCC(=O)O)C(=O)N[C@@H](Cc1ccccc1)C(=O)N[C@@H](CC(C)C)C(N)=O)C(C)C
B3: [Aib2,Glu21,Lys29,Aib30,Leu31,Glu32,Leu34,Glu35,Leu36,Leu37]-Exendin-4-(1-37)-peptide amide (peptide)
peptide: H[Aib]EGTFTSDLSKQMEEEAVREFIEWLKNK[Aib]LESLELL-NH2
modifications: N-terminus assumed
SMILES: CC[C@H](C)[C@H](NC(=O)[C@H](Cc1ccccc1)NC(=O)[C@H](CCC(=O)O)NC(=O)[C@H](CCCNC(=N)N)NC(=O)[C@@H](NC(=O)[C@H](C)NC(=O)[C@H](CCC(=O)O)NC(=O)[C@H](CCC(=O)O)NC(=O)[C@H](CCC(=O)O)NC(=O)[C@H](CCSC)NC(=O)[C@H](CCC(N)=O)NC(=O)[C@H](CCCCN)NC(=O)[C@H](CO)NC(=O)[C@H](CC(C)C)NC(=O)[C@H](CC(=O)O)NC(=O)[C@H](CO)NC(=O)[C@@H](NC(=O)[C@H](Cc1ccccc1)NC(=O)[C@@H](NC(=O)CNC(=O)[C@H](CCC(=O)O)NC(=O)C(C)(C)NC(=O)[C@@H](N)Cc1c[nH]cn1)[C@@H](C)O)[C@@H](C)O)C(C)C)C(=O)N[C@@H](CCC(=O)O)C(=O)N[C@@H](Cc1c[nH]c2ccccc12)C(=O)N[C@@H](CC(C)C)C(=O)N[C@@H](CCCCN)C(=O)N[C@@H](CC(N)=O)C(=O)N[C@@H](CCCCN)C(=O)NC(C)(C)C(=O)N[C@@H](CC(C)C)C(=O)N[C@@H](CCC(=O)O)C(=O)N[C@@H](CO)C(=O)N[C@@H](CC(C)C)C(=O)N[C@@H](CCC(=O)O)C(=O)N[C@@H](CC(C)C)C(=O)N[C@@H](CC(C)C)C(N)=O
B4: [Aib8,Glu23,Val25,Glu34,Lys35,Aib36,Lys37]-GLP-1-(7-37)-peptidyl-His-Phe-Leu amide (peptide)
peptide: H[Aib]EGTFTSDVSSYLEGEAVKEFIAWLVEK[Aib]KHFL-NH2
modifications: N-terminus assumed
SMILES: CC[C@H](C)[C@H](NC(=O)[C@H](Cc1ccccc1)NC(=O)[C@H](CCC(=O)O)NC(=O)[C@H](CCCCN)NC(=O)[C@@H](NC(=O)[C@H](C)NC(=O)[C@H](CCC(=O)O)NC(=O)CNC(=O)[C@H](CCC(=O)O)NC(=O)[C@H](CC(C)C)NC(=O)[C@H](Cc1ccc(O)cc1)NC(=O)[C@H](CO)NC(=O)[C@H](CO)NC(=O)[C@@H](NC(=O)[C@H](CC(=O)O)NC(=O)[C@H](CO)NC(=O)[C@@H](NC(=O)[C@H](Cc1ccccc1)NC(=O)[C@@H](NC(=O)CNC(=O)[C@H](CCC(=O)O)NC(=O)C(C)(C)NC(=O)[C@@H](N)Cc1c[nH]cn1)[C@@H](C)O)[C@@H](C)O)C(C)C)C(C)C)C(=O)N[C@@H](C)C(=O)N[C@@H](Cc1c[nH]c2ccccc12)C(=O)N[C@@H](CC(C)C)C(=O)N[C@H](C(=O)N[C@@H](CCC(=O)O)C(=O)N[C@@H](CCCCN)C(=O)NC(C)(C)C(=O)N[C@@H](CCCCN)C(=O)N[C@@H](Cc1c[nH]cn1)C(=O)N[C@@H](Cc1ccccc1)C(=O)N[C@@H](CC(C)C)C(N)=O)C(C)C
B5: [Aib2,Glu21,Lys29,Aib30,Leu31,Phe33,Leu34,Glu35,Leu36,Leu37]-Exendin-4-(1-37)-peptide amide (peptide)
peptide: H[Aib]EGTFTSDLSKQMEEEAVREFIEWLKNK[Aib]LSFLELL-NH2
modifications: N-terminus assumed
SMILES: CC[C@H](C)[C@H](NC(=O)[C@H](Cc1ccccc1)NC(=O)[C@H](CCC(=O)O)NC(=O)[C@H](CCCNC(=N)N)NC(=O)[C@@H](NC(=O)[C@H](C)NC(=O)[C@H](CCC(=O)O)NC(=O)[C@H](CCC(=O)O)NC(=O)[C@H](CCC(=O)O)NC(=O)[C@H](CCSC)NC(=O)[C@H](CCC(N)=O)NC(=O)[C@H](CCCCN)NC(=O)[C@H](CO)NC(=O)[C@H](CC(C)C)NC(=O)[C@H](CC(=O)O)NC(=O)[C@H](CO)NC(=O)[C@@H](NC(=O)[C@H](Cc1ccccc1)NC(=O)[C@@H](NC(=O)CNC(=O)[C@H](CCC(=O)O)NC(=O)C(C)(C)NC(=O)[C@@H](N)Cc1c[nH]cn1)[C@@H](C)O)[C@@H](C)O)C(C)C)C(=O)N[C@@H](CCC(=O)O)C(=O)N[C@@H](Cc1c[nH]c2ccccc12)C(=O)N[C@@H](CC(C)C)C(=O)N[C@@H](CCCCN)C(=O)N[C@@H](CC(N)=O)C(=O)N[C@@H](CCCCN)C(=O)NC(C)(C)C(=O)N[C@@H](CC(C)C)C(=O)N[C@@H](CO)C(=O)N[C@@H](Cc1ccccc1)C(=O)N[C@@H](CC(C)C)C(=O)N[C@@H](CCC(=O)O)C(=O)N[C@@H](CC(C)C)C(=O)N[C@@H](CC(C)C)C(N)=O
B6: [Aib2,Glu21,Lys29,Aib30,Leu31,Glu32,Phe33,Glu35,Leu36,Leu37]-Exendin-4-(1-37)-peptide amide (peptide)
peptide: H[Aib]EGTFTSDLSKQMEEEAVREFIEWLKNK[Aib]LEFGELL-NH2
modifications: N-terminus assumed
SMILES: CC[C@H](C)[C@H](NC(=O)[C@H](Cc1ccccc1)NC(=O)[C@H](CCC(=O)O)NC(=O)[C@H](CCCNC(=N)N)NC(=O)[C@@H](NC(=O)[C@H](C)NC(=O)[C@H](CCC(=O)O)NC(=O)[C@H](CCC(=O)O)NC(=O)[C@H](CCC(=O)O)NC(=O)[C@H](CCSC)NC(=O)[C@H](CCC(N)=O)NC(=O)[C@H](CCCCN)NC(=O)[C@H](CO)NC(=O)[C@H](CC(C)C)NC(=O)[C@H](CC(=O)O)NC(=O)[C@H](CO)NC(=O)[C@@H](NC(=O)[C@H](Cc1ccccc1)NC(=O)[C@@H](NC(=O)CNC(=O)[C@H](CCC(=O)O)NC(=O)C(C)(C)NC(=O)[C@@H](N)Cc1c[nH]cn1)[C@@H](C)O)[C@@H](C)O)C(C)C)C(=O)N[C@@H](CCC(=O)O)C(=O)N[C@@H](Cc1c[nH]c2ccccc12)C(=O)N[C@@H](CC(C)C)C(=O)N[C@@H](CCCCN)C(=O)N[C@@H](CC(N)=O)C(=O)N[C@@H](CCCCN)C(=O)NC(C)(C)C(=O)N[C@@H](CC(C)C)C(=O)N[C@@H](CCC(=O)O)C(=O)N[C@@H](Cc1ccccc1)C(=O)NCC(=O)N[C@@H](CCC(=O)O)C(=O)N[C@@H](CC(C)C)C(=O)N[C@@H](CC(C)C)C(N)=O
B7: [Aib2,Glu21,Aib30,Leu31,Glu32,Phe33,Leu34,Glu35,Leu36,Leu37]-Exendin-4-(1-37)-peptide amide (peptide)
peptide: H[Aib]EGTFTSDLSKQMEEEAVREFIEWLKNG[Aib]LEFLELL-NH2
modifications: N-terminus assumed
SMILES: CC[C@H](C)[C@H](NC(=O)[C@H](Cc1ccccc1)NC(=O)[C@H](CCC(=O)O)NC(=O)[C@H](CCCNC(=N)N)NC(=O)[C@@H](NC(=O)[C@H](C)NC(=O)[C@H](CCC(=O)O)NC(=O)[C@H](CCC(=O)O)NC(=O)[C@H](CCC(=O)O)NC(=O)[C@H](CCSC)NC(=O)[C@H](CCC(N)=O)NC(=O)[C@H](CCCCN)NC(=O)[C@H](CO)NC(=O)[C@H](CC(C)C)NC(=O)[C@H](CC(=O)O)NC(=O)[C@H](CO)NC(=O)[C@@H](NC(=O)[C@H](Cc1ccccc1)NC(=O)[C@@H](NC(=O)CNC(=O)[C@H](CCC(=O)O)NC(=O)C(C)(C)NC(=O)[C@@H](N)Cc1c[nH]cn1)[C@@H](C)O)[C@@H](C)O)C(C)C)C(=O)N[C@@H](CCC(=O)O)C(=O)N[C@@H](Cc1c[nH]c2ccccc12)C(=O)N[C@@H](CC(C)C)C(=O)N[C@@H](CCCCN)C(=O)N[C@@H](CC(N)=O)C(=O)NCC(=O)NC(C)(C)C(=O)N[C@@H](CC(C)C)C(=O)N[C@@H](CCC(=O)O)C(=O)N[C@@H](Cc1ccccc1)C(=O)N[C@@H](CC(C)C)C(=O)N[C@@H](CCC(=O)O)C(=O)N[C@@H](CC(C)C)C(=O)N[C@@H](CC(C)C)C(N)=O

The binders below were run against human GLP-1 receptor (human, UniProt P43220) (assay: cell-based or functional assay).
B1 was tested, and the “CRE luciferase EC50, 0% HSA” value was 58 pM and the “CRE luciferase EC50, 1% HSA” value was 32 pM. For B2, the “CRE luciferase EC50, 0% HSA” value was 39 pM and the “CRE luciferase EC50, 1% HSA” value was 13 pM. In the case of B3, the “CRE luciferase EC50, 0% HSA” value is reported as 23 pM and the “CRE luciferase EC50, 1% HSA” value is reported as 11 pM. For B4, the “CRE luciferase EC50, 0% HSA” value was 205 pM and the “CRE luciferase EC50, 1% HSA” value was 62 pM. In the case of B5, the “CRE luciferase EC50, 0% HSA” value is reported as 358 pM and the “CRE luciferase EC50, 1% HSA” value is reported as 145 pM. In the case of B6, the “CRE luciferase EC50, 0% HSA” value is reported as 26 pM and the “CRE luciferase EC50, 1% HSA” value is reported as 12 pM. For B7, the “CRE luciferase EC50, 0% HSA” value was 67 pM and the “CRE luciferase EC50, 1% HSA” value was 32 pM.

Source: patent US20150344540A1, “NOVEL GLP-1 RECEPTOR AGONISTS WITH CHOLESTEROL EFFLUX ACTIVITY” (NOVO NORDISK A/S, priority 2012, published 2015)
